Measured values taken from the nanobody polyreactivity screen of Harvey et al. (2022).

Assay: yeast display, Sf9 membrane polyspecificity reagent, FACS + sequencing; frameworks hold sequencing errors
Summary of the method: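 A synthetic nanobody library was expressed on Saccharomyces cerevisiae BJ5465 by galactose induction for 36–48 hours. The library was stained for 1 hour at 4 °C with 10% biotinylated, detergent-solubilized Sf9 membrane reagent and enriched with streptavidin microbeads before FACS. Low and high (top ~1%) gates were set on anti-HA fluorescence for expression and streptavidin fluorescence for reagent binding, and each polyreactivity label reflects the gate of origin.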

Sequence	polyreactivity (PSR sort gate)
QVHLVESGGGIVQAGGRLRLSCAASGLIFYHYAMGWYRQAPGKEREFVAAITVSGGSTYYADSVKGRFTITRDNAKNTVYLQMNSLKPEDSAVYYCNARSVVWWASGDYWGQGTQVTVSS	low polyreactivity
QVQLVESGGGLVQAGGSLRLSCAASGFTFTRNAMGWYRQAPGKERELVAAISSSAGSTSYADSVKGRFTISRDNAKNPVYLQMNRLKPEDTAVYYCATEGSYYSWVGKVGYRYQYHYWGQGTQVTVSS	high polyreactivity
QVQLVESGGGLVQAGGSLRLSCAASGSIFAYAMGWYRQAPGKERELVAGISSSGGRTYYADSVKGRFTISRDNAKNTVYLQMISLKPEDTAVYYCAARYPNVYQSETYFYWGQGTQVNVSS	high polyreactivity
QDQLVESRGVIVQAGGSLRLSCAASGRIFSVNAMGWYRQAPGKERELVAAITGSGTITYYADSVKGRFTISRDNAKNIVYLQMNSLKQEDTAVYYCAARPVLRYYAGYYYWGQGTQVTVSS	high polyreactivity
QVQLVESGGGLVQAGGSLRLSCAASGRIFQGYAMGWYRPAPGKERELGASIRTGGTTNYADSVKGRFTISRDNAKNTVYLQMNSLTPEDTAVYYCAKRYYGWYGNFDYWGQGTQVTVSA	high polyreactivity
QVQLVESGGGLVQAGGSLRLSCAASGPISAIYDMGWYRQAPGKEREVVAAISGGTSTYYADSVKGRFTISRDNAKNTVYLQMNSLKPEDTAVYYCNAEASSYHGVEDEYDYWGQGTQVTVSS	low polyreactivity
QVQLVESGGGLVQAGGSLRLICAASGFIFYGNAMGWYRQAPGKERELVAAISSSGGSTYYADSVKGRFTISRDNAKNTVYLQMNSLKPEDTAVYYCNKYYLVKGPYDWGQGTQVTVSS	high polyreactivity
QVQLVESGGALVQAGGSLRLSCAASGSIFFENAMGWYRPAPGKERELVAAIRSGVDTYYADSVKGRFTLSRDNAKNTVYLQMNSLKPQDTAVYNCNADAYYYYAIWWSEVDYWGQGTQVTVSS	low polyreactivity
QVQLVESGGGLVQAGGSLRLSCAASGFTFQYYAMGWYRQAPVKERELVAAINWSGGRTYYADSVKGRFTISRDNAKNTVYLQMNSLKPEDTAVYYCAAPRSFSGGYGYVSYDYWGQGTQVTVSS	high polyreactivity
QLQLVESGGGLVQAGGSLRLSCAASGSIFNQYAMGWYRQAPGKERELVAAISSGSTYYADSVKGRFIISRDNAKNTVYLQMFSLKPEDTAVYYCAAGRNRRSSGIYVSKYWGQGTQETVSS	high polyreactivity
QVQLVESGGGLVQAGGSLRLSCAASGSIFTYYTMGWYRPAPGKERELVAAIRWSAGRTYYADSVKGRFTISRDNAKNTVYLQMNSLKPEDTAVYYCAAAERLRHGLKFDYWGQGTQVTVSS	high polyreactivity
QVQLVESGGGLDQARGSLRLSCAASGSTFYLYAMGWYRQAPGKERELVAAISSGGRTYYADSVKGRFTISRDNAKNTVYLQMNSLKPEDTAVYYCAKVYRRRYYWGQGTQVTVSS	high polyreactivity
QVQLVESGGGLVQAGGSLRLSCAASGSTFGANALGWYRQAPGKERELVAAITGGSTFYADSVKGRFTISRDNAKNTVYLQMNSLKPEDTSVYYCAVDYTYSYVDYWSEYDYWGQGTQVTVSS	low polyreactivity
QVQLVESGGGLVQAGGSLRLSCAASGSTFNLYAMGWYRQAPGKERELVASISRSGVSTYYADSVKGRFTISRDNAKNTVYLQMNSLKPEDTAVYYCAVDKVLYRLYPGMDYWGQGTQVTVSS	low polyreactivity
QVQLVETGGGLVQAGGSLRLSCAASGRTFEGNAMGWYRQAPGKERELVAAISGSGGRTYYADSVKGRFTISRDNAKYTVYLQMNSLKPEDTAVYYETLYSVYNPRRFNYWGQGTQVTVSS	high polyreactivity
QVQLVESGGGLVQAGGSLRLSCAASGFTFDSNAMGWYRQAPGKERELVAAISSSGGSTYYADSVKGRFTISRDNAKNTVYLQMNSLKPEDTAVYYCNARRRTVPYRYDYWGQGTQVTVSS	high polyreactivity
QVQLVESGGGLVQAGGSLRLSCAASGRIFGGYTMGWYRQAPGKERELVAAITSGGSTNYADSVKGRFTISRDNAKNTVYLQMNSLKPEDTAVYYCAATYDGTYDYWGQGTQVTVSS	high polyreactivity
QVHLVESGGGKVQAGGSLRLSCAASGGTFYQYAMGWYRQAPGKESELVAAITRSGGRTYYADSVKGRFTISRDNAKNTVYFQMNSLKPEDTAVYYCAAEDVGPPDFYYWGQGTQVNVSS	high polyreactivity
QVQLVESGGGLFQAGGSLRLSCAASGRTFKNNAMGWYRQAPGKERELVAAISSNGGSTYYADSVKGRFTISRDNAKNTVYLQMNSLKPEDTAVYYCAADRTIVEYYYWGQGTQVTVSS	high polyreactivity
QVQLVESGGGLGQAGGSLRLSCAASGITFYPNGMGWYRPAPGKEREFVAAITSSGGSTYYADSVKGRFTISRDNAKNTVYLQMNSLKPEDTAVYYCAAQYYPISYYGYGYWGQGTQVTVSS	low polyreactivity
QVQLVESGGGLVQAGGSLRLSSAASGIIFKSYAMGWYRPAPGKERELVSAISGGGDTYYAYSVKGRFTISRDNAKNTVNLQMNSLKPEDTAVYYCNTDGSQGTIIAIFVKYDYWGQGTQVTVSS	low polyreactivity
QVQLVDSGGGLVQAGGSLRLSCDASGSTFRGYAMGWYRKAPGKERELVAAISSRGARTHYADSLKGRFTISRDNAKNNVYLQMNSLKPEDTAVYYCNKRQVFFSTGEYEFDYWGQGTQVTVSS	low polyreactivity
